The target of one data set is Avd. Also noted: method as in PMID 17052607. The conditions noted are these: read-out: Kd of Avd-HABA complex; cited from earlier work.
The nature of data set [1]: Fluorometric assay: quenching of intrinsic protein fluorescence by unconjugated ligand. The format is binding. The conditions noted are these: 100 nM protein, pH 7, 25°C, read-out: Kd for progesterone. As for the experimental part: The binding affinity of the unconjugated small molecules to antidins was determined utilizing the intrinsic fluorescence originating from the aromatic amino acid residues (mainly tryptophan and tyrosine) of Avd and the fluorescence quenching caused by ligand binding. In brief, 100 nM protein samples in 50 mM NaH2PO4/Na2HPO4, 650 mM NaCl, pH 7 were excited at 280 nm, and emission was collected at 350 nm using QuantaMaster Spectrofluorometer (Photon Technology International, Inc.) with 2 nm slits. The assay was performed in a quartz cuvette with stirring at 25°C. The ligand was added to the protein sample in small aliquots (6–50 000 nM) and the fluorescence intensity was monitored after a short incubation. The dissociation constant (Kd) was determined from the resulting quenching curve using GraphPad Prism (GraphPad Software, Inc.). The data were fitted to a quadratic equation [72] for tight binding interactions, which takes ligand depletion and nonspecific binding into account (described in detail in [38]) (Fig 6).

Data set [2] deals with the molecule itself. The data set can be described thus: SEC; Superdex200 Increase 5/150GL, 50 mM sodium phosphate, 650 mM NaCl, pH 7, 0.1 ml/min, 20°C; molecular weight from a standard curve of elution volumes of markers.
Details of data set [3]: method as in PMID 26550684. The note with it: fluorometry-based assay, non-conjugated ligand, earlier study; read-out: Kd for progesterone; cited from earlier work.
Data set [4] deals with the molecule itself. In words: crystal structure; co-crystallised with progesterone, sitting drop vapour diffusion, 21°C; 2.80 Å; two monomers in the asymmetric unit, tetrameric biological unit.
Data set [5] can be described thus: Differential scanning calorimetry, no ligand. The format is physicochemical. The note with it: DSC, absence of ligand, 6.4 μM protein, pH 7. As for the experimental part: (§1) The thermal stability of the antidin sbAvd-7 in the presence and absence of ligands was analyzed using an automated VP-Capillary DSC System (Malvern, Microcal Inc.) essentially as described in [73]. Protein samples in the sodium phosphate buffer (50 mM, pH 7) containing 650 mM NaCl were degassed prior to the measurement. The protein concentration in the cell was 6.4 μM, and the molar concentration of the ligands (D-biotin (Biochemica, Fluka) and progesterone (Steraloids Inc., USA)) were three times higher (Fig 6).
On the technique in general: In DSC, transitions show as peaks or steps in heat flow.

Data set [6] is described as follows: Differential scanning calorimetry with progesterone. The note with it: DSC, ligand three times the protein concentration. The format is binding. As for the experimental part:
as §1

The nature of data set [7]: Differential scanning calorimetry with biotin. The format is binding. The conditions noted are these: DSC, ligand three times the protein concentration. As for the experimental part: as §1

The source of these data is PMC6382169, “Molecular features of steroid-binding antidins and their use for assaying serum progesterone” (PLoS ONE, 2019).

Residue numbers refer to the chain shown, from its start. Numbers in names are those of the source. Where two headings read alike, the source gives them in different places.

As to `O=C(O)c1ccccc1N=Nc1ccc(O)cc1` [HABA, 2-(4’-hydroxybenzene)azobenzoic acid], the Kd (usually the constant that tells how readily two partners part at equilibrium) at Avd is approximately 6000 nM.

B1: hbAvd-4: antidin S16A, Y33F, T40P, F72A, S73Y, S75Y, N118A; from AvLib-5, hydrocortisone panning (protein, UniProt P02701 25-152, looked up, variant S16A Y33F T40P F72A S73Y S75Y N118A)
Avidin: ARKCSLTGKWTNDLGANMTIGAVNSRGEFTGTFITAVTAPSNEIKESPLHGTQNTINKRTQPTFGFTVNWKAYEYTTVFTGQCFIDRNGKEVLKTMWLLRSSVNDIGDDWKATRVGIAIFTRLRTQKE
Take B1: the Kd in data set [1] was determined as 39 nM.

B2: sbAvd-7 antidin (engineered chicken avidin) (designed binder)
chain: ARKCSLTGKWTNRMNHNMTIGAVNSRGEFTGTYIASLNATSNEIKESPLHGTQNTINKRTQPTFGFTVNWKFSESTAVFTGQCFIDRNGKEVLKTMWLLRSSVNDIGDDWKATRVGINIFTRLRTQKE
notes: selected from the phage display library AvLib-4 (template sbAvd-1); Subcloned with the OmpA signal peptide and a C-terminal 6xHis-tag into pET101/D; source: E. coli BL21-AI or OverExpress C43(DE3), purified (Ni-NTA)
Take B2: in data set [2], the stoichiometry N – broadly, a count of units in the complex or per binding partner – amounted to 4.

B3: sbAvd-4: antidin with RMNH at 13-16 and PYLS at positions 35-38; from AvLib-3 (protein, UniProt P02701 25-152, looked up, variant D13R L14M G15N S16H T35P A36Y V37L T38S)
Avidin: B2 chain with A35P, S36Y, N38S, A77T
For B3, the Kd in data set [3] was 135 nM.

B4: sbAvd-6: antidin with RMNH at 13-16 and VSSN at positions 35-38; from AvLib-3 (protein, UniProt P02701 25-152, looked up, variant D13R L14M G15N S16H T35V A36S V37S T38N)
Avidin: B2 chain with A35V, L37S, A77T
In the case of B4, the Kd in data set [3] was 117 nM.

B5: sbAvd-2 (I117Y) antidin (engineered chicken avidin) (designed binder)
chain: B2 chain with S36T, L37V, A77T, I117Y
notes: position 37 stays V; Crystallised with progesterone; also called sbAvd-2 (I117Y) mutant
For B5, the “stoichiometry N” value in data set [4] was 4.

B6: sbAvd-2 (I117Y): sbAvd-2 with stabilizing mutation I117Y; co-crystallized with progesterone, PDB:5LUR (protein)
chain: B2 chain with S36T, L37V, A77T, I117Y
B6: the Kd in data set [3] was 180 nM.

B7: sbAvd-9: antidin with RMNH at 13-16, YYLP at 35-38 and T77A; from AvLib-4 (protein, UniProt P02701 25-152, looked up, variant D13R L14M G15N S16H T35Y A36Y V37L T38P T77A)
Avidin: B2 chain with A35Y, S36Y, N38P
Turning to B7, the Kd in data set [1] was 13 nM.

B8: sbAvd-2: antidin with RMNH at 13-16 and ATVN at positions 35-38; from AvLib-3 (protein, UniProt P02701 25-152, looked up, variant D13R L14M G15N S16H T35A A36T T38N)
Avidin: B2 chain with S36T, L37V, A77T
With B8, the Kd in data set [3] was 111 nM.

B9: sbAvd-7: antidin with RMNH at 13-16, ASLN at 35-38 and T77A; from AvLib-4, progesterone panning (protein)
chain: B2 chain
modifications: left off: 6xHis, C-terminal, state not stated
notes: antidin with RMNH at 13-16, ASLN at 35-38 and T77A; from AvLib-4, progesterone panning
Take B9: the Tm (in general, the temperature at the midpoint of the melting transition) in data set [5] came out at 85.84 °C. Also, the ΔTm with progesterone in data set [6] amounted to 10.23 °C. Moreover, the ΔTm with biotin in data set [7] is 0.27 °C.

B10: sbAvd-5: antidin with RMNH at 13-16 and VPHP at positions 35-38; from AvLib-3 (protein, UniProt P02701 25-152, looked up, variant D13R L14M G15N S16H T35V A36P V37H T38P)
Avidin: B2 chain with A35V, S36P, L37H, N38P, A77T
With B10, the Kd in data set [3] was 108 nM.

B11: sbAvd-8: antidin with RMNH at 13-16, Y33F, A36Y, V37S, T38Y and T77A; from AvLib-4 (protein, UniProt P02701 25-152, looked up, variant D13R L14M G15N S16H Y33F A36Y V37S T38Y T77A)
Avidin: B2 chain with Y33F, A35T, S36Y, L37S, N38Y
As for B11, the equilibrium dissociation constant (Kd) in data set [1] was 11 nM.
